As a reminder, the stoichiometry N is the number of molecules, sites or subunits per partner or assembly.

In this assay the target is NadRh from M. tuberculosis (NadR homolog) (M. tuberculosis). Nature of the assay: SEC. On the technique in general: Size exclusion chromatography separates by hydrodynamic size, large species first.

On to “NadRh from M. tuberculosis (NadR homolog) (natural protein)”, for which the stoichiometry N came to 2.
